# According to IntAct's records for PubMed 29892012:
# B1: CLK4-associating serine/arginine rich protein (Homo sapiens), Q8N2M8 (parent)
# chain: MWHEARKHERKLRGMMVDYKKRAERRREYYEKIKKDPAQFLQVHGRACKVHLDSAVALAAESPVNMMPWQGDTNNMIDRFDVRAHLDHIPDYTPPLLTTISPEQESDERKCNYERYRGLVQNDFAGISEEQCLYQIYIDELYGGLQRPSEDEKKKLAEKKASIGYTYEDSTVAEVEKAAEKPEEEESAAEEESNSDEDEVIPDIDVEVDVDELNQEQVADLNKQATTYGMADGDFVRMLRKDKEEAEAIKHAKALEEEKAMYSGRRSRRQRREFREKRLRGRKISPPSYARRDSPTYDPYKRSPSESSSESRSRSRSPTPGREEKITFITSFGGSDEEAAAAAAAAAASGVTTGKPPAPPQPGGPAPGRNASARRRSSSSSSSSSASRTSSSRSSSRSSSRSRRGGGYYRSGRHARSRSRSWSRSRSRSRRYSRSRSRGRRHSGGGSRDGHRYSRSPARRGGYGPRRRSRSRSHSGDRYRRGGRGLRHHSSSRSRSSWSLSPSRSRSLTRSRSHSPSPSQSRSRSRSRSQSPSPSPAREKLTRPAASPAVGEKLKKTEPAAGKETGAAKPKLTPQEKLKLRMQKALNRQFKADKKAAQEKMIQQEHERQEREDELRAMARKIRMKERERREKEREEWERQYSRQSRSPSPRYSREYSSSRRRSRSRSRSPHYRH
# partner: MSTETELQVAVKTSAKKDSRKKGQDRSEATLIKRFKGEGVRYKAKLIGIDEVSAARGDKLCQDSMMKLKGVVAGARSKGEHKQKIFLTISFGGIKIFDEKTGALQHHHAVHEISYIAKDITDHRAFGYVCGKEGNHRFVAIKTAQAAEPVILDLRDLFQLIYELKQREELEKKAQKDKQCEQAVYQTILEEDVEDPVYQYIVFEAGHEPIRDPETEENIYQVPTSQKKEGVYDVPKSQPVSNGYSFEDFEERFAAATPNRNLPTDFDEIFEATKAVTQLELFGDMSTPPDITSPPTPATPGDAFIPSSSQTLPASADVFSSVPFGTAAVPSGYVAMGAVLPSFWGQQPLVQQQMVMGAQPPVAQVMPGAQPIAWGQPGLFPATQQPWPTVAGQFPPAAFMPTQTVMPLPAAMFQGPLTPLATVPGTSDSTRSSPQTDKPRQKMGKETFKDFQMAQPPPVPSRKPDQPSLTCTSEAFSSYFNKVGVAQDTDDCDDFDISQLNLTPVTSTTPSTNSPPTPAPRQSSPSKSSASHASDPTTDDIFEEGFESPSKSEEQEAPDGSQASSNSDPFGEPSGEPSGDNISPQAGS
# B2: Vacuolar protein-sorting-associated protein 25 (Homo sapiens), Q9BRG1 (parent)
# chain: MAMSFEWPWQYRFPPFFTLQPNVDTRQKQLAAWCSLVLSFCRLHKQSSMTVMEAQESPLFNNVKLQRKLPVESIQIVLEELRKKGNLEWLDKSKSSFLIMWRRPEEWGKLIYQWVSRSGQNNSVFTLYELTNGEDTEDEEFHGLDEATLLRALQALQQEHKAEIITVSDGRGVKFF
# partner: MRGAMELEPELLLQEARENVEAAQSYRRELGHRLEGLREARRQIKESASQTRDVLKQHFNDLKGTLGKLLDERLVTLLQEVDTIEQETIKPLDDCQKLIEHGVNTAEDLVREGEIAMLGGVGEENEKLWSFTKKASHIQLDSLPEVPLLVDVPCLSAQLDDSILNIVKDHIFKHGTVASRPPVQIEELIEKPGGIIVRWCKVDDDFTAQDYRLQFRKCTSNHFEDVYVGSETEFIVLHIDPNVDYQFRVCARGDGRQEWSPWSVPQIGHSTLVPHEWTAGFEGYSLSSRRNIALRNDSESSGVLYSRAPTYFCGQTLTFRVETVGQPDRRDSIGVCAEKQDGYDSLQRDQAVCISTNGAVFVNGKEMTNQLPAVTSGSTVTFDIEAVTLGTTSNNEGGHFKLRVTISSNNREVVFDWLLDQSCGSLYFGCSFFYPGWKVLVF
# B3: Ligand of Numb protein X 2 (Homo sapiens), Q8N448 (parent)
# chain: MGTTSDEMVSVEQTSSSSLNPLCFECGQQHWTRENHLYNYQNEVDDDLVCHICLQPLLQPLDTPCGHTFCYKCLRNFLQEKDFCPLDRKRLHFKLCKKSSILVHKLLDKLLVLCPFSSVCKDVMQRCDLEAHLKNRCPGASHRRVALERRKTSRTQAEIENENGPTLLDPAGTLSPEADCLGTGAVPVERHLTSASLSTWSEEPGLDNPAFEESAGADTTQQPLSLPEGEITTIEIHRSNPYIQLGISIVGGNETPLINIVIQEVYRDGVIARDGRLLAGDQILQVNNYNISNVSHNYARAVLSQPCNTLHLTVLRERRFGNRAHNHSDSNSPREEIFQVALHKRDSGEQLGIKLVRRTDEPGVFILDLLEGGLAAQDGRLSSNDRVLAINGHDLKYGTPELAAQIIQASGERVNLTIARPGKPQPGNTIREAGNHSSSSQHHTPPPYYSRPSSHKDLTQCVTCQEKHITVKKEPHESLGMTVAGGRGSKSGELPIFVTSVPPHGCLARDGRIKRGDVLLNINGIDLTNLSHSEAVAMLKASAASPAVALKALEVQIVEEATQNAEEQPSTFSENEYDASWSPSWVMWLGLPSTLHSCHDIVLRRSYLGSWGFSIVGGYEENHTNQPFFIKTIVLGTPAYYDGRLKCGDMIVAVNGLSTVGMSHSALVPMLKEQRNKVTLTVICWPGSLV
# partner: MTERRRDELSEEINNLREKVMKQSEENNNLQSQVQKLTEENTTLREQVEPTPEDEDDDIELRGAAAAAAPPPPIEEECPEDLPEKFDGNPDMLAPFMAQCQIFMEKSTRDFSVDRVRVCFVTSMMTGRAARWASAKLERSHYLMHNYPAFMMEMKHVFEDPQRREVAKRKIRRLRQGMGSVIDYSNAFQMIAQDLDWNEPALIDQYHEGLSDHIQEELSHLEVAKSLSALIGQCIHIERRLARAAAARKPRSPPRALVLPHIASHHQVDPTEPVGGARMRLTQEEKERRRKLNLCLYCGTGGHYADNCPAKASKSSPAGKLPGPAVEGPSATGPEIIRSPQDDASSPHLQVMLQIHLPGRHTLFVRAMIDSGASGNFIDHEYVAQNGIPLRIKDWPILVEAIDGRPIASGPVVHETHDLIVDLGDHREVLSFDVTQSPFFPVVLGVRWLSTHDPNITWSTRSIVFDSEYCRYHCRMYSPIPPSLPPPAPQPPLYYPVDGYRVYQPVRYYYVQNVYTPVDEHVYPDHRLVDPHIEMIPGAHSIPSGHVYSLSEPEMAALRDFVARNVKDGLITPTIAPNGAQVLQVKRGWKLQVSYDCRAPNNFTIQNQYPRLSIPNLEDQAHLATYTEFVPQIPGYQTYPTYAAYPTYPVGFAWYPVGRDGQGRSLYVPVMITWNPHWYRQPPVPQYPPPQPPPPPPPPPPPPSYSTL
# B4: Synaptotagmin-16 (Homo sapiens), Q17RD7 (parent)
# chain: MVLAMASQDVQNFFQPFSSWISRVYEALQQAGDMLSASLVNISKQDSKLSDKLDQDLDNIQIQETYFEDEEQDNDWSQEDANSLFLEVDHFSCCNSDLQDSAQNSSPSLSQHAKDSCSTMSQWPNWASDDRKLPHVLSSIAEEEHHLEKQRSGLQHGFDSQLPGTLETVNGKKQVNSFGDDEELSTSSDSDEEVIKQFEISVSRSQSFRSVTSEKGKQTGLEQKPKFSRSLLTHGEDGTEVSACEDLDGASQRRYSENLSYGEDDHIPAHSQSPCERGDAKHHGTSHQESSVVQSLRRQSTEGSLEMETAFNSRGFEDSYATDSSSMWSPEEQDRTNLQVPSGVSEPISKCGDLDVIFEYRAASQKLTVTIVRAQGLPDKDRSGVNSWQVHVVLLPGKKHRGRTNIQRGPNPVFREKVTFAKLEPRDVAACAVRFRLYAARKMTRERMMGEKLFYLSHLHPEGEMKVTLVLEPRSNISSGGSPLSPSAVSHSDSTSSTQSLSHGGAPELLVGLSYNATTGRLSVEMIKGSHFRNLAVNRAPDTYGKLFLLNSVGQEMSRCKTSIRRGQPNPVYKETFVFQVALFQLSDVTLMISVYNRRTMKRKEMIGWIALGQNSSGEEEQDHWEEMKETKGQQICRWHTLLES
# Variants of: B1
# Conditions: with dab1_human DAB1, O75553
row,effect of a mutation on the interaction,Variant
1,with no effect,I163V

# Variants of: B2
# Conditions: with crlf3_human CRLF3, Q8IUI8
row,effect of a mutation on the interaction,Variant
1,with no effect,P58Q

# Variants of: B3
# Conditions: with peg10_human PEG10, Q86TG7
row,effect of a mutation on the interaction,Variant
1,with no effect,P669A

# Variants of: B4
# Conditions: with praf1_human RABAC1, Q9UI14
# praf1_human RABAC1, Q9UI14, sequence (Q9UI14 whole entry): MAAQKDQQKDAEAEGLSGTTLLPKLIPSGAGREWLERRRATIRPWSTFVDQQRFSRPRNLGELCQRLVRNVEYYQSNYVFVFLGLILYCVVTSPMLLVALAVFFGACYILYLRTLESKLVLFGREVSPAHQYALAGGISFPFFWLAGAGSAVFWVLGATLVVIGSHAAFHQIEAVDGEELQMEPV
row,effect of a mutation on the interaction,Variant
1,with no effect,R441W

# Variants of: B4
# Conditions: with rtn4_human RTN4, Q9NQC3
# rtn4_human RTN4, Q9NQC3, sequence (Q9NQC3 whole entry): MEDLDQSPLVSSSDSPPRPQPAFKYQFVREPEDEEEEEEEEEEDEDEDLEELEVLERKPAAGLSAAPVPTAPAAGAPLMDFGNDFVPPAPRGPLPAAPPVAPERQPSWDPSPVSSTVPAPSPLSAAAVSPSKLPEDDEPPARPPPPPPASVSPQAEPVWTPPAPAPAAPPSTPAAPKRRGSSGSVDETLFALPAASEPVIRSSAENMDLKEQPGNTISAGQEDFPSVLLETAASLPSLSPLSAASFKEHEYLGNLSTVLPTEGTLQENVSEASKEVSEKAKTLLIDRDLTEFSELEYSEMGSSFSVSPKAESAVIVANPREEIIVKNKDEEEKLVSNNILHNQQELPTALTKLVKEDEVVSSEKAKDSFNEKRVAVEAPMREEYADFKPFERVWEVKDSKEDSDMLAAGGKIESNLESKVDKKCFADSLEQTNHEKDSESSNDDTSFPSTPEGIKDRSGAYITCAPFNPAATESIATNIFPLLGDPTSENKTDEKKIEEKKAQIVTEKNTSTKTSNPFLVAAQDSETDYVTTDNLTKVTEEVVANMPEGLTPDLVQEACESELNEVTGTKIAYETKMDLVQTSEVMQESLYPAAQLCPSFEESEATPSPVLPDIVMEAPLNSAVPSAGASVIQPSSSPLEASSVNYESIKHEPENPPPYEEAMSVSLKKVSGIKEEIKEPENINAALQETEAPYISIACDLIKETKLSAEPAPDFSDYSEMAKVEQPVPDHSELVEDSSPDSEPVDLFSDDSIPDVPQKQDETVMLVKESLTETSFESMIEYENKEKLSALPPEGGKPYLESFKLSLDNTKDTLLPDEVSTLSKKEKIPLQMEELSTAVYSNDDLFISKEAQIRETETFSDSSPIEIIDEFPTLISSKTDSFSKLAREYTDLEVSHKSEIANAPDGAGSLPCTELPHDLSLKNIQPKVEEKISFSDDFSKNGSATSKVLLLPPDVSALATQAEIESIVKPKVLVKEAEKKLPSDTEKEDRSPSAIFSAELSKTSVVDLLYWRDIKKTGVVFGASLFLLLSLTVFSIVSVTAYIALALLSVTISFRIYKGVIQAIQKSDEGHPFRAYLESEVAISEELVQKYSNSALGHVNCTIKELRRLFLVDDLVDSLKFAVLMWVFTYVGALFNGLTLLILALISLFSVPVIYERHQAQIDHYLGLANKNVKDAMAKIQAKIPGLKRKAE
row,effect of a mutation on the interaction,Variant
1,with no effect,R441W
